Reference: patent US20210236614A1
Where “and” joins values, the source holds several entries; their conditions need not be identical. Identical values can stand only once.

Assays:
Experiment in all cases: ELISA, His-PD1 on nickel plate, conjugate only control
[1] = molecular target: His tagged rhesus monkey PD1 (Sino) (rhesus monkey) (UniProt B0LAJ2)
[2] = molecular target: His tagged canine PD1 (Sino) (canine)
[3] = molecular target: His tagged rat PD1 (Sino) (rat) (UniProt D3ZIN8)
[4] = molecular target: His tagged mouse PD1 (Sino) (mouse) (UniProt Q02242)
Sequence of His tagged mouse PD1 (Sino) (mouse) (Q02242 25-167 limits assumed): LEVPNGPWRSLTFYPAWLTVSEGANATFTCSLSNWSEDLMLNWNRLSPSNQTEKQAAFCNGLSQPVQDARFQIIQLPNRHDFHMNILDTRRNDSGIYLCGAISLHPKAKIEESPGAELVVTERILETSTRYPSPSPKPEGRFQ

Sequence of His tagged rhesus monkey PD1 (Sino) (rhesus monkey) (B0LAJ2 entry or part of it limits assumed, form in doubt): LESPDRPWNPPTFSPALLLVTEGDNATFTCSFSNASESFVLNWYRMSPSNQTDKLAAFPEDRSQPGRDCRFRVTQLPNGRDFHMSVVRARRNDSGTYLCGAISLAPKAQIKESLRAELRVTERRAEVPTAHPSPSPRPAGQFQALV
Sequence of His tagged rat PD1 (Sino) (rat) (D3ZIN8 entry or part of it limits assumed, form in doubt): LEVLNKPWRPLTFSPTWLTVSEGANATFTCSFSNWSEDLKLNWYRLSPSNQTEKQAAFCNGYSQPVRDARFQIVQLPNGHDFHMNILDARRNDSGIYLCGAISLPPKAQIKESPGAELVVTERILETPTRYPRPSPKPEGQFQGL

Substance: horseradish peroxidase-labeled anti-rabbit antibody (conjugate only control)
- OD [1]: 0.063 OD and 0.058 OD
- OD [2]: 0.059 OD and 0.06 OD
- OD [3]: 0.055 OD
- OD [4]: 0.066 OD and 0.064 OD
